Measurements as given in patent publication US7485460B2, “Enhanced growth of adult stem cells with Dkk-1” (Tulane University Health Sciences Center, priority 2003, dated 2009).

B1: recombinant Dkk-1: Histidine-tagged recombinant human Dkk-1 expressed in E. coli, refolded from inclusion bodies; inhibitor of Wnt signaling (protein)
chain: TLNSVLNSNAIKNLPPPLGGAAGHPGSAVSAAPGILYPGGNKYQTIDNYQPYPCAEDEECGTDEYCASPTRGGDAGVQICLACRKRRKRCMRHAMCCPGNYCKNGICVSSDQNHFRGEIEETITESFGNDHSTLDGYSRRTTLSSKMYHTKGQEGSVCLRSSDCASGLCCARHFWSKICKPVLKEGQVCTKHRRKGSHGLEIFQRCYCGEGLSCRIQKDHHQASNSSRLHTCQRH

What was measured:
MSCs (RS cells) = experiment: Binding of biotinylated Dkk-1 peptides to MSCs (streptavidin-biotin fluorescence microscopy); set-up: species or system human; settings: for fluorescence of MSCs labeled with peptide: FIGS. 30A-30G correspond to peptides A-G; for binding to early progenitor cells (RS cells): biotin-labeled peptide, streptavidin Alexafluor 594
Source text: FIG. 30, comprising FIGS. 30A-30H, is an image of a set of photomicrographs depicting solid phase binding assays to MSCs using biotinylated peptides. The labeled peptides in FIGS. 30A-30G correspond to peptides A-G in FIG. 29. FIG. 30H is a control.
The peptides were then labeled with biotin for use with a commercially available streptavidin-biotin detection system. The streptavidin was linked to a fluorescent tag (Alexafluor 594, Molecular Probes, Eugene, Oreg.) so as to be easily detected by fluorescence microscopy. MSCs were incubated with one of the peptides and the streptavidin-biotin detection system as indicated by the manufacturer's instructions. Then the MSCs were observed under a fluorescence microscope. All of these methods are well-known in the art and are easily found throughout the literature.

beta-catenin [1] = experiment: Cellular distribution of beta-catenin in hMSCs by immunostaining; format: cell-based, human; settings: stationary phase hMSCs, 0.1 micrograms per milliliter
Experimental: hMSCs in tissue culture dishes were fixed with 4% (v/v) Paraformaldehyde (USB Corporation, Cleveland, Ohio) for 10 minutes at 4° C. and washed with PBS (Fisher Lifesciences, Pittsburgh, Pa.). Sections (30 millimeter×60 millimeter) of the dishes containing the adherent cells were excised using a hot scalpel under constant hydration with PBS. The samples were blocked in PBS containing 0.4% (v/v) Triton X-100 (Sigma Aldrich, St. Louis, Mo.) and 5% (v/v) goat serum (Sigma Aldrich). Anti-beta-catenin (described above) was added in a 1:400 dilution to the slides in block solution. An appropriate concentration of mouse IgG1 (Cymbus Biotechnology Chandlers Ford, Hants, UK) was used as an isotype control. The samples were incubated for 16 hours at 4° C. followed by washing in PBS. The samples were then incubated for 1 hour in a 1:800 dilution of Alexa-Fluor 594-congugated secondary antibody (Molecular Probes, Eugene, Oreg.). Isotype controls were acquired from Chemicon and Becton Dickinson Slides were washed and mounted with medium containing DAPI (Vector Laboratories Incorporated; Burlingame, Calif.). Immunofluorescence microscopy and digital imaging was carried out using an upright fluorescent microscope (Eclipse 800, Nikon, Japan). […]

hMSCs [2] = experiment: Effect of recombinant Dkk-1 on hMSC proliferation (fluorescence assay for nucleic acids); format: cell-based, human
Experimental: For assay of proliferation, cells were also quantified by fluorescent labeling of nucleic acids (CyQuant dye; Molecular Probes Incorporated; Eugene, Oreg.). hMSCs were plated at 100 cells per cm^2 into 10 cm^2 wells and allowed to grow for 4 days. The cells were washed with PBS and medium was added containing the appropriate concentration of Dkk-1 and FCS. The cells were recovered by trypsinization as described above. Fluorescence analysis was carried out using a microplate fluorescence reader (FLx800; Bio-Tek Instruments Incorporated; Winooski, Vt.) set to 480 nanometers excitation and 520 nanometers emission.
To test the hypothesis that Dkk-1 increased proliferation of hMSCs, its effects on rate of growth were assayed. The hMSCs were plated at a density of 100 cells per cm^2 in 6 well plates (10 per cm^2 per well). After 4 days, when the cells were in early log phase of growth, the conditioned medium was removed and replaced with fresh medium containing either vehicle, 0.1 micrograms per milliliter Dkk-1 or 0.01 micrograms per milliliter Dkk-1.

hMSCs [3] = experiment: Colony-forming potential of hMSCs with recombinant Dkk-1 (crystal violet); format: cell-based, human
Experimental: MSCs were plated at about 0.6 cells per cm^2 and incubated in complete medium for 17 days. For direct visualization of colonies, a 5% (w/v) solution of crystal violet in methanol (Sigma Aldrich, St. Louis, Mo.) was added to tissue culture dishes previously washed twice with PBS. After 20 minutes, the plates were washed with distilled water and air-dried. Stained colonies with diameters 2 millimeters or greater were counted.
To test the effect of recombinant Dkk-1 on the colony-forming potential of hMSCs, 100 hMSCs were plated onto a 176 cm2 tissue culture dish and allowed to form colonies in the absence or presence of Dkk-1 in medium supplemented with 10% (v/v) fetal calf serum instead of the optimal concentration of 20%.

beta-catenin [4] = experiment: beta-catenin levels in hMSCs by western blotting; format: cell-based, human; settings: stationary phase hMSCs, 0.1 micrograms per milliliter
Experimental: For immunoblotting, filters were blocked in PBS containing 0.1% (v/v) Tween 20 (Sigma, St. Louis, Mo.) for 1 hour. For detection of beta-catenin, blots were probed with an anti-beta-catenin monoclonal antibody at a dilution of 1 to 1000 (clone 5H10 Chemicon International; Temecula, Calif.) followed by an anti-mouse peroxidase-conjugated rabbit serum (Sigma Aldrich, St. Louis, Mo.). For detection of Dkk-1, blots were probed in 1 microgram per milliliter of anti Dkk-1 polyclonal antibody (see below) followed by an anti-rabbit peroxidase-conjugated monoclonal antibody (clone RG 96, Sigma Aldrich, St. Louis, Mo.). Positive bands were detected by chemiluminescence in accordance with a previously described procedure (Spees et al. Cell Stress Chaperones, 7:97-106 (2002)).
In further experiments, the effect of recombinant Dkk-1 on beta-catenin levels in hMSCs were investigated.

[5] = 100 hMSCs per 176 cm2 dish, 10% FCS, 2.5 weeks

Molecule | fluorescence of MSCs labeled with peptide (MSCs (RS cells)) | binding to early progenitor cells (RS cells) (MSCs (RS cells)) | cellular distribution of beta-catenin (beta-catenin [1]) | duration of effect on proliferation (hMSCs [2]; 0.1 micrograms per milliliter) [h] | rate of proliferation at high concentration (hMSCs [2]; 0.5 micrograms per milliliter) | effect on proliferation as cells approached stationary phase (hMSCs [2]; cells approaching stationary phase of growth) | effect on lag phase and proliferation (hMSCs [2]; early log phase hMSCs, fresh medium with 0.1 or 0.01 micrograms per milliliter Dkk-1) | duration of significant effect on proliferation (hMSCs [2]; tenfold less Dkk-1 (0.01 micrograms per milliliter)) | colony size and number at high concentration (hMSCs [3]; 0.5 micrograms per milliliter) | colony number (hMSCs [3]; [5]) | colony size (hMSCs [3]; [5]) | beta-catenin levels (beta-catenin [4])
LSSKMYHTKGQEGSVCLRSS (Peptide synthesized from Dkk-1 LRP-6 binding domain) [Peptide B] | highly fluorescent | tightly bound |  |  |  |  |  |  |  |  |  | 
sTKHRRKGSHGLEIFQRCYs (STKHRRKGSHGLEIFQRCYS; Peptide synthesized from Dkk-1 LRP-6 binding domain) [Peptide E] | highly fluorescent | tightly bound |  |  |  |  |  |  |  |  |  | 
B1 |  |  | clearance of the cytoplasmic pool of beta-catenin | 30 | failed to increase the rate of proliferation | no significant effect | reduced the lag phase and initially increased proliferation | about 15 hours | reduced both the colony size and number | no significant effect | increased colony size | reduced the levels of beta-catenin
